The target in one test is T1, 106-123 (also: biotinylated, site not given here).
T1 construct: Bar group label on the sheet
T1 peptide: CSEYRPKIKGEHPGLSIG
Description: ELISA on biotinylated HMGB1 peptides captured on NeutrAvidin, antibody in serial dilution from 10 ug/ml, anti-human IgG-HRP, OD 450. On the procedure:
(§1) The plate was then blocked with 4% milk powder dissolved in PBS at 37° C. for 1 hour. The blocking solution was removed and replaced with human anti-HMG1 antibodies at various concentrations (see FIGS. 5A-B). […] HRP activity was detected with Sureblue HRP substrate (KPL). Plates were read at 450 nm using a Kinetic Microplate Reader (Molecular Devices). […] After washing and blocking with 1% BSA in PBS, the biotinylated peptides were individually added into the avidin coated wells and incubated for 30 min at room temperature. The serial diluted antibody G4, S16 and S6 at the initial concentration at 10 μg/ml were then transferred into the wells followed by adding mouse anti human IgG-HRP conjugate (Pierce). Detection was accomplished by adding 50 μl of tetramethylbenzidine (TMB) substrate (KPL) and the absorbance was read at […].
Background: In an ELISA, binding on a coated surface is turned into a signal by an enzyme label.

The target in test [1] is T2, HMG1 B Box peptide amino acids 91-169.
T2 construct: also called HMG1 peptide 91-169
T2 peptide: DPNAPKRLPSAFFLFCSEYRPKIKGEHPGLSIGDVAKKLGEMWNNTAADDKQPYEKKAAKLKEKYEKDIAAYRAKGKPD
Description: ELISA, wells coated with HMG1 B Box peptide 91-169 at 10 ug/ml, anti-human IgG-HRP, OD 450. On the procedure: as §1

Test [2] addresses T3, HMG1 purified from bovine (calf) thymus (bovine, UniProt P10103 2-215).
T3 construct: also called Calf thymus HMGB1; thymus HMG1
T3 sequence (looked up): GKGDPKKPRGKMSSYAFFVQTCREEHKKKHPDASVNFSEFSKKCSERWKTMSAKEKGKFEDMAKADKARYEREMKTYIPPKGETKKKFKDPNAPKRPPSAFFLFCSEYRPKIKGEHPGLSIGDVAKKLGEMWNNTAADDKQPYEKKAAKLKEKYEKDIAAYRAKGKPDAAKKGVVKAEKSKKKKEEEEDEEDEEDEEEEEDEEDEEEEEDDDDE
Description: ELISA, wells coated with calf thymus HMGB1 at 5 ug/mL, antibody at 10 ug/mL, anti-human kappa/lambda-HRP, OD 490. An outline of the steps:
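Calf thymus HMGB1 or HMGB2 coated at 5 ug/mL in 10 mM PBS pH 7.2 overnight at 4 °C; anti-HMGB1 antibody added at 10 ug/mL final in PBS + 1% BSA, 1 h at room temperature. Detection with HRP anti-human kappa plus lambda (1:1000, 1 h), OPD substrate 20-30 min in the dark, H₂SO₄ stop, absorbance 490 nm.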

Test [3] deals with T4, recombinant HMG1 purified from E. coli as a calmodulin binding protein (CBP) fusion protein (human, UniProt A9RA84 1-215 (Papio anubis entry)).
T4 construct: also called rHMG1; rHMGB1
T4 sequence: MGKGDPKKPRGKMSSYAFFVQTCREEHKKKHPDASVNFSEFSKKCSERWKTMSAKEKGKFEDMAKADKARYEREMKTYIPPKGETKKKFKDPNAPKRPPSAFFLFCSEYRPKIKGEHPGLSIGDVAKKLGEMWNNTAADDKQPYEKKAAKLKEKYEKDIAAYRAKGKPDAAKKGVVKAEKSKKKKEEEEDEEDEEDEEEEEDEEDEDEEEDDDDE
Description: sandwich ELISA: antibody captured on anti-human IgG Fc, rHMG1 2 ug/ml in solution, mouse anti-HMGB1 and anti-mouse IgG-HRP, OD 450. The procedure: (§2) Sandwich ELISA (soluble HMG1): Immunoplates (EIA/RIA plate, High binding, Costar) were coated with anti human IgG Fc at 10 μg/ml in PBS (pH 7.2) and incubated at 4° C. overnight. The coating reagent was removed and the plates were rinsed briefly with PBS. The plates were then blocked with 4% milk for 1 hour at 37° C. and rinsed with PBS. The anti-HMG1 antibodies were diluted in 4% milk. For serial dilutions, the antibodies were used at a starting concentration of 20 μg/ml. The diluted anti-HMG1 antibodies were then added into plate and incubated for 1 hr at 37° C. The plate was then washed 10 times with PBST (PBS/0.1% tween 20) and incubate with antigen (HMGB1, 2 μg/ml; or 0.7 μg/ml for native HMGB1) in 4% milk and incubated at 37° C. for 1 h. The plate was then wash 10 times and incubated with mouse anti-HMGB1, 1 μg/ml in 4% milk at 37° C. for 1 h. The plate was washed 10 times and incubated with anti-mouse IgG-HRP at 1:1000 at 37° C. for 1 h. The plate was then washed and developed. HRP activity was detected with Sureblue HRP substrate (KPL). Plates were read at 450 nm using a Kinetic Microplate Reader (Molecular Devices).

For test [4], the target named is T5, native nuclear HMG1 prepared from 293H cells by freeze thaw (human, UniProt P09429 1-215).
T5 construct: unpurified cell lysate supernatant
T5 sequence (looked up): T4 sequence
Description: sandwich ELISA: antibody captured on anti-human IgG Fc, native HMGB1 0.7 ug/ml in solution, mouse anti-HMGB1 and anti-mouse IgG-HRP, OD 450. The procedure:
as §2

Test [5] concerns the target T2, HMG1 B Box peptide amino acids 91-169. Description: ELISA, wells coated with HMG1 B Box peptide 91-169 at 10 ug/ml. The procedure, abridged: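 Biotinylated peptides captured on avidin-coated wells (1% BSA block, 30 min, room temperature), then antibodies added in serial dilution from 10 μg/ml; for the coated-peptide format, plates blocked with 4% milk/PBS 1 h at 37 °C. Bound antibody detected with anti-human IgG-HRP and TMB, absorbance at 450 nm.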

The next test deals with T6, HMGB1 peptide 166-183 (UniProt P09429 166-183, also: biotinylated, site not given here).
T6 peptide (looked up): GKPDAAKKGVVKAEKSKK
Description: ELISA on biotinylated HMGB1 peptides captured on NeutrAvidin, antibody in serial dilution from 10 ug/ml, anti-human IgG-HRP, OD 450. On the procedure:
as §1

Test [6] has as its target T7, activated HMG1 prepared from LPS stimulated THP-1 cells (human, UniProt P09429 1-215).
T7 sequence (looked up): T4 sequence
Put plainly: cell-based or functional assay.

No end group written: not given here.

What is called EC50 (read off the curve) is the midpoint of the concentration-response curve.

B1: anti-HMG1 antibody G4 (antibody, V domains shown)
VH: EVQLLESGGGLVQPGGSLRLSCAASGFTFSWYDMTWVRQAPGKGLEWVSSISPSGGYTKYADSVKGRFTISRDNSKNTLYLQMNSLRAEDTAVYYCTTEFYDYLDVWGKGTTVTVSS
VL: DIQMTQSPGTLSLSPGEGATLSCRASQSVSSTYLAWYQQKPGQAPRLLIYEASKRATGTPARFSGSGSGTDFTLSISSLEPEDFAVYYCQHRHNWPPQWTFGQGTKVEVK
notes: also called ATCC PTA-6258
As to B1, the binding result (in the test with 106-123; in test [1]; in test [2]) was “binds” throughout.

B2: anti-HMG1 antibody S2 (antibody, V domains shown)
VH: EVQLLESGGGLVQPGGSLRLSCAASGFTFSGYMMVWVRQAPGKGLEWVSRISPSGGQTGYADSVKGRFTISRDNSKNTLYLQMNSLRAEDTAVYYCAREEGGSYGAFDIWGQGTMVTVSS
VL: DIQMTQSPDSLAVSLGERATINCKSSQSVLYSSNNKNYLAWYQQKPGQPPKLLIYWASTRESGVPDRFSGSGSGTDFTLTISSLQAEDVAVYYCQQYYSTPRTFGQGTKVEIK
notes: also called ATCC PTA-6142
In the case of B2, the “EC50 (read off the curve)” value in test [3] is ~0.08 µg/mL; in test [4], ~0.8 µg/mL. Also, the values for the binding result in test [5] and in test [2] were “no binding (tested: 10 ug/ml (log 1.00))” and “binds”, respectively.

B3: anti-HMG1 antibody S6 (antibody, V domains shown)
VH: EVQLLESGGGLVQPGGSLRLSCAASGFTFSWYDMSWVRQAPGKGLEWVSRISPSGGYTMYADSVKGRFTISRDNSKNTLYLQMNSLRAEDTAVYYCARLEVGATSGGTAFDIWGQGTMVTVSS
VL: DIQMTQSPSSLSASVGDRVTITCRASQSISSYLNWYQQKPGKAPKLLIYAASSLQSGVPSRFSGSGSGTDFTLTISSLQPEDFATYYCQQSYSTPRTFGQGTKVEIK
notes: also called ATCC PTA-6143
In the case of B3, the figures for the binding result in test [5] and in test [2] were “no binding (tested: 10 ug/ml (log 1.00))” and “binds”, respectively.

B4: anti-HMG1 antibody S16 (antibody, V domains shown)
VH: EVQLLESGGGLVQPGGSLRLSCAASGFTFSWYSMLWVRQAPGKGLEWVSYISPSGGFTNYADSVKGRFTISRDNSKNTLYLQMNSLRAEDTAVYYCARWDYNSGWYYDHWGQGTLVTVSS
VL: DIQMTQSPDTLSLSPGERATLSCRASQSVNSRNLAWYQQKPGQAPRLLIYGASTRATGIPDRFSGSVSGTEFTLTISSLQPDDFATYYCQQYNSYFTFGQGTKLEIK
notes: also called ATCC PTA-6259
For B4, the binding result (in the test with HMGB1 peptide 166-183; in test [1]; in test [2]) was “binds” in each case. Moreover, the “EC50 (read off the curve)” value in test [3] is ~0.08 µg/mL. Besides, in test [6], the “IC50, inhibition of native activated HMG1 stimulated IL-6 release from human PBMC” value is 38.9 nM.

The record behind these values is patent US20080311122A1 (AstraZeneca / MedImmune, published 2008).
